We go through 16 molecules from US20170304437A1 (ALLIGATOR BIOSCIENCE, published 2017).

In test [1] the target is T1, CD40-Fc (Ancell # 504-820) (human, UniProt P25942 21-193).
T1 construct: Bought reagent; also called human CD40; not shown: Fc part of the bought fusion
Description: binding ELISA, CD40-Fc coated, sample titrated, anti-human IgG Fc-HRP, chemiluminescence. How it is done: (§1) In short, 96-well flat bottom plate high binding plates (Greiner #655074) were coated with CD40-Fc (Ancell # 504-820) by incubating overnight at 4° C. The plates were washed (Wash buffer: PBS+0.05% Tween 20 (PBST) Medicago #09-9410-100) and then blocked in PBST+3% BSA (Merck, #1.12018.0100). The plates were washed again and samples or control (serial dilutions 1/2, starting at 0.2 ug/ml) were added to the wells.
(§2) The samples were incubated for 1 h at room temperature and then washed. Detection antibody, goat-anti-human IgG Fcγ-HRP (Jackson, #109-035-098) was added and the plates were subsequently developed using SuperSignal Pico Chemiluminescent substrate (Thermo #37069) and detected with Envision reader (Perkin Elmer). In FIG. 6A the binding of bispecific molecules at different concentrations to CD40 coated onto an ELISA plate is shown. In FIG. 6B, the binding of bispecific molecules at one fixed concentration (100 ng/ml) to CD40 coated onto an ELISA plate is shown. The bispecific molecules bind specifically to CD40.
Background: In an ELISA, binding on a coated surface is turned into a signal by an enzyme label.

Test [2] addresses T1, CD40-Fc (Ancell # 504-820). Description: binding ELISA, CD40-Fc coated, one fixed concentration, anti-human IgG Fc-HRP. How it is done:
as §1, §2

Test [3] addresses T2, human CTLA4-Fc (Fitzgerald #30R-CD152) (human, UniProt P16410 38-152).
T2 construct: Bought reagent; also called biotinylated-CTLA4; human CTLA-4 (Fitzgerald); not shown: Fc part of the bought fusion
Description: binding ELISA, CTLA4-Fc coated, sample titrated, anti-human IgG Fc-HRP, chemiluminescence, data normalised to % [both panels]. How it is done: (§3) The plates were washed (Wash buffer: PBS+0.05% Tween 20 (PBST) Medicago #09-9410-100) and then blocked in PBST+3% BSA (Merck, #1.12018.0100). The plates were washed again and sample or controls (serially diluted 1/3 from […]) were added to the wells. The samples were incubated for 1 h at room temperature and then washed. Detection antibody, goat-anti-human IgG Fγy-HRP (Jackson, #109-035-098) was added and the plates were subsequently developed using SuperSignal Pico Chemiluminescent substrate (Thermo #37069) and detected with an Envision reader (Perkin Elmer).

In test [4] the target is T3, CD28-Fc (provided by Simon Davis, Oxford University) (human, UniProt P10747 19-152, limits assumed).
T3 construct: Gift reagent; not shown: Fc part
Description: binding ELISA, coated CD28-Fc. How it is done:
as §3

Test [5] addresses T2, human CTLA4-Fc (Fitzgerald #30R-CD152). Description: binding ELISA, CTLA4-Fc coated, sample titrated, anti-human IgG Fc-HRP, chemiluminescence, data normalised to % [upper panel]. How it is done: as §3
Test [6] has the same target. Description: binding ELISA, CTLA4-Fc coated, sample titrated, anti-human IgG Fc-HRP, chemiluminescence, data normalised to % [lower panel]. How it is done:
as §3

The target in test [7] is T1, CD40-Fc (Ancell # 504-820). Kind of test: binding ELISA, CD40-Fc coated, one fixed concentration (100 ng/ml), anti-human IgG Fc-HRP. How it is done:
as §1, §2

T2 sequence (P16410 38-152 limits assumed): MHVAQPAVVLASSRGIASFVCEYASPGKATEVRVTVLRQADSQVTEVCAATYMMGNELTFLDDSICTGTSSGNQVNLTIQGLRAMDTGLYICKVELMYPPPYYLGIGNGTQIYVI
T1 sequence (P25942 21-193 limits assumed): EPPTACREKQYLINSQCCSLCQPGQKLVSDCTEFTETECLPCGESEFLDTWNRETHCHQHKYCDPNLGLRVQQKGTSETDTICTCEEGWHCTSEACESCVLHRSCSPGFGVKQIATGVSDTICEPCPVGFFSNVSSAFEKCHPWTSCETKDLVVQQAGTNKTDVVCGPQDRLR

B1: Bispecific polypeptide 957/530 (bispecific antibody, human IgG1, kappa)
light: QSVLTQPPSASGTPGQRVTISCSGSSSNIGSNTVNWYQQLPGTAPKLLIYRNNQRPSGVPDRFSGSKSGTSASLAISGLRSEDEADYYCAAWDDSLSGWRFGGGTKLTVLGGTVAAPSVFIFPPSDEQLKSGTASVVCLLNNFYPREAKVQWKVDNALQSGNSQESVTEQDSKDSTYSLSSTLTLSKADYEKHKVYACEVTHQGLSSPVTKSFNRGECSGGGGSGGGGSAPLKIQAYFNETADLPCQFANSQNQSLSELIVFWQDQENLVLNEVYLGKERFDAVDSKYMGRTSFDSDSWTLRLHNLQIKDKGIYQCIIHHKKPSGMVKIHQMDSELSVLA
heavy: not shown
What is called EC50 (read off the curve) is the concentration giving half of the maximal effect. Take B1: the “EC50 (read off the curve)” value in test [1] was about 0.2 µg/mL.

B2: isolated polypeptide of amino acid sequence SEQ ID NO: 8 (soluble CTLA-4 binding domain reference 904) (ligand)
chain: LKIQAYFNETADLPCQFANSQNQSLSELIVFWQDQENLVLNEVYLGKERFDAVDSKYMGRTSFDSDSWTLRLHNLQIKDKGIYQCIIHHKKPSGMVKIHQMDSELSVLA
notes: Control in the CD40 ELISA
As for B2, the binding result in test [2] is given as “no binding (tested: 100 ng/ml (not on the sheet))”.

B3: wild type human CD86 soluble extracellular domain (control in Examples 2 and 4) (ligand)
chain: APLKIQAYFNETADLPCQFANSQNQSLSELVVFWQDQENLVLNEVYLGKEKFDSVHSKYMGRTSFDSDSWTLRLHNLQIKDKGLYQCIIHHKKPTGMIRIHQMNSELSVLA
notes: probably the same Fc fusion as the clones; also called wild-type protein CD86; wild type CD86; not shown: the clones it is compared with were gamma2/gamma4 Fc fusions and detection was by anti
For B3, the 50% effective concentration (EC50 (read off the curve)) in test [3] is about 0.5 µg/mL.

B4: CD86 mutant clone 1038, gamma2/gamma4 fusion (Fc fusion)
chain: APLKIQAYFNETADLPCQFANSQNLSLSELVVFWQDQENLVLNEVYLGKEKFDSVDSKYMGRTSFDSDSWTLRLHNLQIKDKGIYQCIIHHKKPTGMVKIHEMNSELSVLA
notes: Expressed as gamma2/gamma4 fusion, protein A purified; not shown: gamma2/gamma4 Fc
For B4, the binding result in test [4] is listed as “no binding”. Also, the “EC50 (read off the curve)” value in test [5] is about 0.1 µg/mL.

B5: CD86 mutant clone 1045, gamma2/gamma4 fusion (Fc fusion)
chain: APLKIQAYFNETADLPCQFANSQNLTLSELVVFWQDQENLVLNEVYLGKEKFDSVDSKYMGRTSFDSDSWTLRLHNLQIKDKGLYQCIIHHKKPTGLVKIHEMNSELSVLA
notes: as for B4
As to B5, in test [4], the binding result was “no binding”. Also, the “EC50 (read off the curve)” value in test [6] is about 0.05 µg/mL.

B6: CD86 mutant clone 1046, gamma2/gamma4 fusion (Fc fusion)
chain: APLKIQAYFNETADLPCQFANSQNQSLSELVVFWQDQENLVLNEVYLGKEKFDSVDSKYMGRTSFDSDSWTLRLHNLQIEDKGIYQCIIHHKKPSGMVKIHQMDSELSVLA
notes: as for B4
Take B6: the binding result in test [4] is given as “no binding”. The “EC50 (read off the curve)” value in test [6] was about 0.02 µg/mL.

B7: CD86 mutant clone 1044, gamma2/gamma4 fusion (Fc fusion)
chain: APLKIQAYFNETADLPCQFANSQNLTLSELVVFWQDQENLVLNEVYLGKEKFDSVSSKYMGRTSFDSDSWTLRLHNLQIKDKGIYQCIIHHKKPTGMIKIHEMSSELSVLA
notes: as for B4
With B7, the binding result in test [4] is “no binding”. In test [6], the “EC50 (read off the curve)” value is about 0.03 µg/mL.

B8: CD86 H79A mutant (Peach et al) control clone (ligand)
chain: APLKIQAYFNETADLPCQFANSQNQSLSELVVFWQDQENLVLNEVYLGKEKFDSVASKYMGRTSFDSDSWTLRLHNLQIKDKGLYQCIIHHKKPTGMIRIHQMNSELSVLA
notes: also called Prior Art; not shown: probably the same gamma2/gamma4 Fc fusion
Take B8: in test [3], the “EC50 (read off the curve)” value was about 0.8 µg/mL.

B9: CD86 mutant clone 1047, gamma2/gamma4 fusion (Fc fusion)
chain: APLKIQAYFNETADLPCQFANSQNLSLSELVVFWQDQENLVLNEVYLGKEKFDSVDSKYMGRTSFDSDSWTLRLHNLQIKDKGIYQCIIHHKKPTGLVKIHEMNSELSVLA
notes: as for B4
Consider B9, for which, in test [4], the binding result was “no binding”.

B10: CD86 mutant clone 1039, gamma2/gamma4 fusion (Fc fusion)
chain: APLKIQAYFNETADLPCQFANSQNLSLSELVVFWQDQENLVLNEVYLGKEKFDSVSSKYMGRTSFDSDSWTLRLHNLQIKDKGIYQCIIHHKKPSGMVKIHQMDSELSVLA
notes: as for B4
As for B10, in test [4], the binding result is “no binding”. For the same molecule, the “EC50 (read off the curve)” value in test [5] was about 0.04 µg/mL.

B11: CD86 mutant clone 1041, gamma2/gamma4 fusion (Fc fusion)
chain: APLKIQAYLNETADLPCQFANSQNLSLSELVVFWQDQENLVLNEVYLGKEKFDSVDSKYMGRTSFDSDSWTLRLHNLQIKDKGIYQCIIHHKKPTGLVKIHEMNSELSVLA
notes: as for B4
Take B11: the binding result in test [4] is given as “no binding”. Further, the “EC50 (read off the curve)” value in test [5] was about 0.09 µg/mL.

B12: CD86 mutant clone 1043, gamma2/gamma4 fusion (Fc fusion)
chain: APLKIQAYFNETADLPCQFANSQNLSLSELVVFWQDQENLVLNEVYLGKEKFDSVDSKYMGRTSFDSDSWTLRLHNLQIKDKGIYQCIIHHKKPTGMIKIHEMNSELSVLA
notes: as for B4
With B12, the binding result in test [4] was “no binding”. Moreover, the “EC50 (read off the curve)” value in test [6] is about 0.04 µg/mL.

B13: Bispecific polypeptide 958/531 (bispecific antibody, human IgG1, kappa)
heavy: not shown
light: QSVLTQPPSASGTPGQRVTISCSGSSSNIGSNTVNWYQQLPGTAPKLLIYRNNQRPSGVPDRFSGSKSGTSASLAISGLRSEDEADYYCAAWDDSLSGWRFGGGTKLTVLGGTVAAPSVFIFPPSDEQLKSGTASVVCLLNNFYPREAKVQWKVDNALQSGNSQESVTEQDSKDSTYSLSSTLTLSKADYEKHKVYACEVTHQGLSSPVTKSFNRGEC
On to B13, for which the binding result in test [7] is “binds”.

B14: Bispecific polypeptide 956/530 (bispecific antibody, human IgG1, kappa)
light: QSVLTQPPSASGTPGQRVTISCSGSSSNIGSNTVNWYQQLPGTAPKLLIYRNNQRPSGVPDRFSGSKSGTSASLAISGLRSEDEADYYCAAWDDSLSGWRFGGGTKLTVLGGTVAAPSVFIFPPSDEQLKSGTASVVCLLNNFYPREAKVQWKVDNALQSGNSQESVTEQDSKDSTYSLSSTLTLSKADYEKHKVYACEVTHQGLSSPVTKSFNRGECSGGGGSGGGGSLKIQAYFNETADLPCQFANSQNQSLSELIVFWQDQENLVLNEVYLGKERFDAVDSKYMGRTSFDSDSWTLRLHNLQIKDKGIYQCIIHHKKPSGMVKIHQMDSELSVLA
heavy: not shown
Take B14: the binding result in test [1] is given as “binds”.

B15: Bispecific polypeptide 959/530 (bispecific antibody, human IgG1, kappa)
light: LKIQAYFNETADLPCQFANSQNQSLSELIVFWQDQENLVLNEVYLGKERFDAVDSKYMGRTSFDSDSWTLRLHNLQIKDKGIYQCIIHHKKPSGMVKIHQMDSELSVLAKRTVAQSVLTQPPSASGTPGQRVTISCSGSSSNIGSNTVNWYQQLPGTAPKLLIYRNNQRPSGVPDRFSGSKSGTSASLAISGLRSEDEADYYCAAWDDSLSGWRFGGGTKLTVLGGTVAAPSVFIFPPSDEQLKSGTASVVCLLNNFYPREAKVQWKVDNALQSGNSQESVTEQDSKDSTYSLSSTLTLSKADYEKHKVYACEVTHQGLSSPVTKSFNRGEC
heavy: not shown
With B15, the binding result in test [7] is given as “binds”.

B16: Bispecific polypeptide 960/530 (bispecific antibody, human IgG1, kappa)
light: LKIQAYFNETADLPCQFANSQNQSLSELIVFWQDQENLVLNEVYLGKERFDAVDSKYMGRTSFDSDSWTLRLHNLQIKDKGIYQCIIHHKKPSGMVKIHQMDSELSVLANFSQPQSVLTQPPSASGTPGQRVTISCSGSSSNIGSNTVNWYQQLPGTAPKLLIYRNNQRPSGVPDRFSGSKSGTSASLAISGLRSEDEADYYCAAWDDSLSGWRFGGGTKLTVLGGTVAAPSVFIFPPSDEQLKSGTASVVCLLNNFYPREAKVQWKVDNALQSGNSQESVTEQDSKDSTYSLSSTLTLSKADYEKHKVYACEVTHQGLSSPVTKSFNRGEC
heavy: not shown
As for B16, in test [7], the binding result is reported as “binds”.
